For this data set the following is noted: gadolinium complex.

“gadolinium complex of (DTPAGLU)4(Lys)2Lys-Gly-Vapreotide [Example 3]” gave a relaxivity of 15 mM⁻¹ s⁻¹.

Values taken from patent US20050008573A1, “Peptides conjugates, their derivatives with metal complexes and use thereof for magnetic resonance imaging (mri)” (priority 2001, published 2005).
